Laboratory results as given in article PMC3089470 (Nucleic Acids Research, 2011).
Residue numbers refer to the chain shown, from its start.

Legend:
Assay in all cases: pull-down
[1] = target: purified recombinant MRN complex (Mre11:Rad50:NBS1) (UniProt P49959;Q92878;O60934)
[2] = target: T1, GST-tagged NBS1 fragment NBS1A (1-221) (UniProt O60934 1-221)
T1 sequence: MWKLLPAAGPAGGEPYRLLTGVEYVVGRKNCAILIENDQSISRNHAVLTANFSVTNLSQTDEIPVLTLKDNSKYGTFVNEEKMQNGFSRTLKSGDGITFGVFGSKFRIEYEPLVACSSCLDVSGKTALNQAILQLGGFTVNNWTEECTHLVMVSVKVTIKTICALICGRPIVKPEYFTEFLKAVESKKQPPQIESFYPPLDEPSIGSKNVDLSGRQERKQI

[3] = target: T2, NBS1A with the mutation R215W (UniProt O60934 1-221, R215W)
T2 sequence: T1 sequence with R215W

[4] = target: T3, NBS1A with the mutation I171V (UniProt O60934 1-221, I171V)
T3 sequence: T1 sequence with I171V

Measured: binding result

Sequence of purified recombinant MRN complex (Mre11:Rad50:NBS1) (P49959 whole entry, chain 1 of 2, the tested form may be a part): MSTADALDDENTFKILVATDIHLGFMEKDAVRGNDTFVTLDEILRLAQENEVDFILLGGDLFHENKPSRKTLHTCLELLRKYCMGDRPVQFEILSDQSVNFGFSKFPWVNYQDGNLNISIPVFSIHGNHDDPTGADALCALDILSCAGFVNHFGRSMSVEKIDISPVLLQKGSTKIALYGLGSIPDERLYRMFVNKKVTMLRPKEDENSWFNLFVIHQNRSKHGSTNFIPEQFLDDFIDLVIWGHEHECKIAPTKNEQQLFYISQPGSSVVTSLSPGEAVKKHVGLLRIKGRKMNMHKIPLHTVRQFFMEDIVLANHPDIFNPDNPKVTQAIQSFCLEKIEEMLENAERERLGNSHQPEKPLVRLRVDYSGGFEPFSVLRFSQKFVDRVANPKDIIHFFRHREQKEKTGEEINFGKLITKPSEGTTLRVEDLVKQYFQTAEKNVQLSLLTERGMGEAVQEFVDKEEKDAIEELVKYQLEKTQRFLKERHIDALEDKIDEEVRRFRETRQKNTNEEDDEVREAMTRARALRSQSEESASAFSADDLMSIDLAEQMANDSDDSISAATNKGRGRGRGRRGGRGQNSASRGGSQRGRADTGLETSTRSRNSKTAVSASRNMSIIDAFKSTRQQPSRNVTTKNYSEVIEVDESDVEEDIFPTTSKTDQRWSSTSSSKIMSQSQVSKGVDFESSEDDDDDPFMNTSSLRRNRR
Sequence of purified recombinant MRN complex (Mre11:Rad50:NBS1) (Q92878 whole entry, chain 2 of 2, the tested form may be a part): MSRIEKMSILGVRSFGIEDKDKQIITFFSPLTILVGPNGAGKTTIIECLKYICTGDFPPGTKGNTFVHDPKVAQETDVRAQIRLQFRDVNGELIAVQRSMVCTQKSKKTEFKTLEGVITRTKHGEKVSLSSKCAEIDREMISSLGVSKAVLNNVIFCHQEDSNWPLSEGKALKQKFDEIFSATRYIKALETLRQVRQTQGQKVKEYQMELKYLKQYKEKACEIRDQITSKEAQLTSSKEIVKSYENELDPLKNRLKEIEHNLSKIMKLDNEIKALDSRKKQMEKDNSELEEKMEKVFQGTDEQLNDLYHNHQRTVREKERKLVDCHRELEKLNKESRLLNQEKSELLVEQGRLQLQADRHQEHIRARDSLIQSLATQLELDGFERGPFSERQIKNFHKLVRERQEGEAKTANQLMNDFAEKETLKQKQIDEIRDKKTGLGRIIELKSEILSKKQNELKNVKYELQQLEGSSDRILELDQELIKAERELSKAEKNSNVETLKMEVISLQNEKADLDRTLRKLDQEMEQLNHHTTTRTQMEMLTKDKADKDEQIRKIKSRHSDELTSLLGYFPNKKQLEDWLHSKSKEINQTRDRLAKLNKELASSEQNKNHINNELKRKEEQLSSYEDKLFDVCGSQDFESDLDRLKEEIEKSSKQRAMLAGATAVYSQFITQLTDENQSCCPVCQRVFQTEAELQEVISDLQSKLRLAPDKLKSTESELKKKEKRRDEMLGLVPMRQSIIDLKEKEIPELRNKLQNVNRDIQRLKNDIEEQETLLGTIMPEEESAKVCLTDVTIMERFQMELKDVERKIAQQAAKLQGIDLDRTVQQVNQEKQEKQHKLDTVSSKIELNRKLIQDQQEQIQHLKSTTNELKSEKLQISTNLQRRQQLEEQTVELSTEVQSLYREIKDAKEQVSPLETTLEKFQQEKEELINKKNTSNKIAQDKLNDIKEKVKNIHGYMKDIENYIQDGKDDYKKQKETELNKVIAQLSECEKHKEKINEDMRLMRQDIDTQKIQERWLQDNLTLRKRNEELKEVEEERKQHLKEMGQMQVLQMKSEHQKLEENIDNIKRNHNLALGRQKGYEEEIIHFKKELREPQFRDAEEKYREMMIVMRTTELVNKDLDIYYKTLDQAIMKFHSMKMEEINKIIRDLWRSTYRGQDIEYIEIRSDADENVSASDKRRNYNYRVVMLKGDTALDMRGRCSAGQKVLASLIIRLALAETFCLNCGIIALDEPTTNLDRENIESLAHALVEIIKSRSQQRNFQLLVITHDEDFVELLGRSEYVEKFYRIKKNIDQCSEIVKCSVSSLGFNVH

B1: hSSB1, full-length recombinant, His-tagged (natural protein)
chain: MTTETFVKDIKPGLKNLNLIFIVLETGRVTKTKDGHEVRTCKVADKTGSINISVWDDVGNLIQPGDIIRLTKGYASVFKGCLTLYTGRGGDLQKIGEFCMVYSEVPNFSEPNPEYSTQQAPNKAVQNDSNPSASQPTTGPSAASPASENQNGNGLSAPPGPGGGPHPPHTPSHPPSTRITRSQPNHTPAGPPGPSSNPVSNGKETRRSSKR
binds: [1] | [2] | [3] | [4]
